In paper PMC10406883:

Tests used:
[1] = Flow cytometry, shSLC3A2 MIA PaCa-2; settings: glycan lost; control: WT 4F2hc reconstitution in shSLC3A2 MIA PaCa-2
[2] = Confocal: 4F2hc membrane expression, colocalization with xCT; settings: glycan lost; control: WT 4F2hc reconstitution
[3] = CHX chase, 4F2hc remaining by western blot
[4] = Western blot, shSLC3A2 PANC-1; settings: glycan lost
[5] = Confocal and flow cytometry, PANC-1; settings: glycan lost; control: no PNGase F
[6] = Western blot, PANC-1, BxPC-3, MIA PaCa-2; settings: glycan changed form; control: Cas9Control cells
[7] = Confocal: membrane colocalization of 4F2hc and xCT; settings: glycan lost; control: no tunicamycin

B1: 4F2hc (CD98hc): N365Q (protein)
parent chain: MELQPPEASIAVVSIPRQLPGSHSEAGVQGLSAGDDSELGSHCVAQTGLELLASGDPLPSASQNAEMIETGSDCVTQAGLQLLASSDPPALASKNAEVTGTMSQDTEVDMKEVELNELEPEKQPMNAASGAAMSLAGAEKNGLVKIKVAEDEAEAAAAAKFTGLSKEELLKVAGSPGWVRTRWALLLLFWLGWLGMLAGAVVIIVRAPRCRELPAQKWWHTGALYRIGDLQAFQGHGAGNLAGLKGRLDYLSSLKVKGLVLGPIHKNQKDDVAQTDLLQIDPNFGSKEDFDSLLQSAKKKSIRVILDLTPNYRGENSWFSTQVDTVATKVKDALEFWLQAGVDGFQVRDIENLKDASSFLAEWQNITKGFSEDRLLIAGTNSSDLQQILSLLESNKDLLLTSSYLSDSGSTGEHTKSLVTQYLNATGNRWCSWSLSQARLLTSFLPAQLLRLYQLMLFTLPGTPVFSYGDEIGLDAAALPGQPMEAPVMLWDESSFPDIPGAVSANMTVKGQSEDPGSLLSLFRRLSDQRSKERSLLHGDFHAFSAGPGLFSYIRHWDQNERFLVVLNFGDVGLSAGLQASDLPASASLPAKADLLLSTQPGREEGSPLELERLKLEPHEGLLLRFPYAA
other: membrane expression of partner xCT [1]: decreases | localisation_or_trafficking [2]: decreases | degradation_or_half_life ([3]; glycan lost): decreases | other: protein levels of xCT, GPX4, B3GNT3 [4]: decreases

B2: 4F2hc (CD98hc): PNGase F (protein)
parent chain: MELQPPEASIAVVSIPRQLPGSHSEAGVQGLSAGDDSELGSHCVAQTGLELLASGDPLPSASQNAEMIETGSDCVTQAGLQLLASSDPPALASKNAEVTGTMSQDTEVDMKEVELNELEPEKQPMNAASGAAMSLAGAEKNGLVKIKVAEDEAEAAAAAKFTGLSKEELLKVAGSPGWVRTRWALLLLFWLGWLGMLAGAVVIIVRAPRCRELPAQKWWHTGALYRIGDLQAFQGHGAGNLAGLKGRLDYLSSLKVKGLVLGPIHKNQKDDVAQTDLLQIDPNFGSKEDFDSLLQSAKKKSIRVILDLTPNYRGENSWFSTQVDTVATKVKDALEFWLQAGVDGFQVRDIENLKDASSFLAEWQNITKGFSEDRLLIAGTNSSDLQQILSLLESNKDLLLTSSYLSDSGSTGEHTKSLVTQYLNATGNRWCSWSLSQARLLTSFLPAQLLRLYQLMLFTLPGTPVFSYGDEIGLDAAALPGQPMEAPVMLWDESSFPDIPGAVSANMTVKGQSEDPGSLLSLFRRLSDQRSKERSLLHGDFHAFSAGPGLFSYIRHWDQNERFLVVLNFGDVGLSAGLQASDLPASASLPAKADLLLSTQPGREEGSPLELERLKLEPHEGLLLRFPYAA
localisation_or_trafficking [5]: abolishes

B3: 4F2hc (CD98hc): B3GNT3KO (protein)
parent chain: MELQPPEASIAVVSIPRQLPGSHSEAGVQGLSAGDDSELGSHCVAQTGLELLASGDPLPSASQNAEMIETGSDCVTQAGLQLLASSDPPALASKNAEVTGTMSQDTEVDMKEVELNELEPEKQPMNAASGAAMSLAGAEKNGLVKIKVAEDEAEAAAAAKFTGLSKEELLKVAGSPGWVRTRWALLLLFWLGWLGMLAGAVVIIVRAPRCRELPAQKWWHTGALYRIGDLQAFQGHGAGNLAGLKGRLDYLSSLKVKGLVLGPIHKNQKDDVAQTDLLQIDPNFGSKEDFDSLLQSAKKKSIRVILDLTPNYRGENSWFSTQVDTVATKVKDALEFWLQAGVDGFQVRDIENLKDASSFLAEWQNITKGFSEDRLLIAGTNSSDLQQILSLLESNKDLLLTSSYLSDSGSTGEHTKSLVTQYLNATGNRWCSWSLSQARLLTSFLPAQLLRLYQLMLFTLPGTPVFSYGDEIGLDAAALPGQPMEAPVMLWDESSFPDIPGAVSANMTVKGQSEDPGSLLSLFRRLSDQRSKERSLLHGDFHAFSAGPGLFSYIRHWDQNERFLVVLNFGDVGLSAGLQASDLPASASLPAKADLLLSTQPGREEGSPLELERLKLEPHEGLLLRFPYAA
expression_or_secretion [6]: increases | degradation_or_half_life ([3]; glycan changed form, control: Cas9Control cells): decreases

B4: 4F2hc (CD98hc): 4NQ (protein)
parent chain: MELQPPEASIAVVSIPRQLPGSHSEAGVQGLSAGDDSELGSHCVAQTGLELLASGDPLPSASQNAEMIETGSDCVTQAGLQLLASSDPPALASKNAEVTGTMSQDTEVDMKEVELNELEPEKQPMNAASGAAMSLAGAEKNGLVKIKVAEDEAEAAAAAKFTGLSKEELLKVAGSPGWVRTRWALLLLFWLGWLGMLAGAVVIIVRAPRCRELPAQKWWHTGALYRIGDLQAFQGHGAGNLAGLKGRLDYLSSLKVKGLVLGPIHKNQKDDVAQTDLLQIDPNFGSKEDFDSLLQSAKKKSIRVILDLTPNYRGENSWFSTQVDTVATKVKDALEFWLQAGVDGFQVRDIENLKDASSFLAEWQNITKGFSEDRLLIAGTNSSDLQQILSLLESNKDLLLTSSYLSDSGSTGEHTKSLVTQYLNATGNRWCSWSLSQARLLTSFLPAQLLRLYQLMLFTLPGTPVFSYGDEIGLDAAALPGQPMEAPVMLWDESSFPDIPGAVSANMTVKGQSEDPGSLLSLFRRLSDQRSKERSLLHGDFHAFSAGPGLFSYIRHWDQNERFLVVLNFGDVGLSAGLQASDLPASASLPAKADLLLSTQPGREEGSPLELERLKLEPHEGLLLRFPYAA
other: membrane expression of partner xCT [1]: decreases | localisation_or_trafficking [2]: decreases | degradation_or_half_life ([3]; glycan lost): decreases | other: protein levels of xCT, GPX4, B3GNT3 [4]: decreases

B5: 4F2hc (CD98hc): 122-311del B3GNT3 (protein)
parent chain: MELQPPEASIAVVSIPRQLPGSHSEAGVQGLSAGDDSELGSHCVAQTGLELLASGDPLPSASQNAEMIETGSDCVTQAGLQLLASSDPPALASKNAEVTGTMSQDTEVDMKEVELNELEPEKQPMNAASGAAMSLAGAEKNGLVKIKVAEDEAEAAAAAKFTGLSKEELLKVAGSPGWVRTRWALLLLFWLGWLGMLAGAVVIIVRAPRCRELPAQKWWHTGALYRIGDLQAFQGHGAGNLAGLKGRLDYLSSLKVKGLVLGPIHKNQKDDVAQTDLLQIDPNFGSKEDFDSLLQSAKKKSIRVILDLTPNYRGENSWFSTQVDTVATKVKDALEFWLQAGVDGFQVRDIENLKDASSFLAEWQNITKGFSEDRLLIAGTNSSDLQQILSLLESNKDLLLTSSYLSDSGSTGEHTKSLVTQYLNATGNRWCSWSLSQARLLTSFLPAQLLRLYQLMLFTLPGTPVFSYGDEIGLDAAALPGQPMEAPVMLWDESSFPDIPGAVSANMTVKGQSEDPGSLLSLFRRLSDQRSKERSLLHGDFHAFSAGPGLFSYIRHWDQNERFLVVLNFGDVGLSAGLQASDLPASASLPAKADLLLSTQPGREEGSPLELERLKLEPHEGLLLRFPYAA
degradation_or_half_life ([3]; glycan changed form, control: 122-311OE (active B3GNT3) in B3GNT3KO cells): decreases

B6: 4F2hc (CD98hc): tunicamycin (TM) (protein)
parent chain: MELQPPEASIAVVSIPRQLPGSHSEAGVQGLSAGDDSELGSHCVAQTGLELLASGDPLPSASQNAEMIETGSDCVTQAGLQLLASSDPPALASKNAEVTGTMSQDTEVDMKEVELNELEPEKQPMNAASGAAMSLAGAEKNGLVKIKVAEDEAEAAAAAKFTGLSKEELLKVAGSPGWVRTRWALLLLFWLGWLGMLAGAVVIIVRAPRCRELPAQKWWHTGALYRIGDLQAFQGHGAGNLAGLKGRLDYLSSLKVKGLVLGPIHKNQKDDVAQTDLLQIDPNFGSKEDFDSLLQSAKKKSIRVILDLTPNYRGENSWFSTQVDTVATKVKDALEFWLQAGVDGFQVRDIENLKDASSFLAEWQNITKGFSEDRLLIAGTNSSDLQQILSLLESNKDLLLTSSYLSDSGSTGEHTKSLVTQYLNATGNRWCSWSLSQARLLTSFLPAQLLRLYQLMLFTLPGTPVFSYGDEIGLDAAALPGQPMEAPVMLWDESSFPDIPGAVSANMTVKGQSEDPGSLLSLFRRLSDQRSKERSLLHGDFHAFSAGPGLFSYIRHWDQNERFLVVLNFGDVGLSAGLQASDLPASASLPAKADLLLSTQPGREEGSPLELERLKLEPHEGLLLRFPYAA
degradation_or_half_life ([3]; glycan lost, control: no tunicamycin): decreases | localisation_or_trafficking [7]: decreases
